{"source": "the DeepSol protein solubility set"}
{"experiment": "soluble on expression in E. coli; label from the status in PepcDB or PDB records"}
{"sequence": "MLSKSKRSCRRRETLRIGEKMSAPITNLQAAQRDAIMNRPAVNGFPHLAETLRRAGVRTNTWWLPAMQSLYETDYGPVLDQGVPLIDGVAEVPAFDRTALVTALRADQAGQTSFREFAAAAWRAGVLRYVVDLENRTCTYFGLHDQTYMEHYAAVEPSGGAPTS", "soluble on expression in E. coli": "not soluble"}
{"sequence": "MGSDKIHHHHHHMLLDYDVALEDDFQQFIKQIPAPVRALLDSADPVARHQRQAVYTLFGIPGRPATMTPLVEALAMVSTLDTPSFAPTPTINDLALSKAHAYASQYLLQQFIRTVSHTTMLPPANRHELLTAAQSLPLANLNRLRLNFNQRERIADFLKDTKDRPAKLTSLSGYLATSLAGLDPAICGLARAIGESVGIVLTILTDVQVTRQIADFRERLLMGNYPLPLLFGFENDPGYFYDFFHQAHKPTADQFVATQQRVLMIGVAPALTMANELVDQARLDSQQLPTDLKKRVEQALTRLAAATAQPH", "soluble on expression in E. coli": "not soluble"}
{"sequence": "SNASYETSQHNLDAVEAVLSRLQKQTGEMAAYMVPVGYRALCVSQRESMQALRCSFVQGQSQPLLRGASSKVMLAYMPAARCEKILRYFGEDPTLDKWQSEFEKIRRHGYAVSTSEIDPGVSGISAPVMKGSKLIGAISVMAPAHRVESNKQRIILHVLQAARAL", "soluble on expression in E. coli": "soluble"}
{"sequence": "MGSDKIHHHHHHMNHYVEGKLLIIGGAEDKKGECKILKRFIQEAGGRESRVVVLTAATEMPEQVGSEYKELFENLGAAEVQVLDIAERVSANRESISQELQKATGIFFTGGDQLRITGILGGTRLGRTLHNLYQRGVIIAGTSAGASVMSDTMIVGGEAGTPKKDTLTMAPGLGLLHSVVVDQHFAQRGRIGRLLTAIAQNPYVLGVGIDEDTSILVYSDGHFTVVGSQTVTVVDASPTMASNVSEISPGQALVLTPVLMHILSDGYRFDLKRRAASLNETPSGG", "soluble on expression in E. coli": "not soluble"}
{"sequence": "MGSDKIHHHHHHMKEIPGLVKKAQIDKHDLTWLEESEVDDRVQQRRYGTTQAAELAGISVGLLYAAEQDGRLPEPEYRSDTARKVRAGYTINHINHMQRVFNTAPRKPEGSSAAIAGILNLKGGSQKTTTCHLFSQYLAIRGYRCLLLDTDPQGSLSFYFGKRPDDNVHYENTVAPFFLEDDEALVEAGHPEGASRSLHYAIQKTYWDNIDIIPACLQNLNIDLLMPSVMNEANVPMLDRIMKLRNGLLEVGENYDFIIIDGTPSLNLSTLNVVSACDVCFVPTPAAMLDFASTLQFAGLVAETAEMYKQEKMYPNIPDMRYFITKYSGSSYAHFMGQIIRRVFTVERGDVLSTEAHASDEIGKANTSTYSIYEKNPAESDNRKRLKKTIEMFDRLFEEMHDAVWETCFEDALRSSHLDKIDEIMSSADLARDDLKRANRLSDKEA", "soluble on expression in E. coli": "not soluble"}
{"sequence": "KDYDAYLSYTKVDPDQWNQETGEEERFALEILPDMLEKHYGYKLFIPDRDLIPTGTYIEDVARCVDQSKRLIIVMTPNYVVRRGWSIFELETRLRNMLVTGEIKVILIECSELRGIMNYQEVEALKHTIKLLTVIKWHGPKCNKLNSKFWKRLQYEMPF", "soluble on expression in E. coli": "soluble"}
{"sequence": "MLIINKLNHAQKQLEKLNFIPQQADKVDFLASSSEFKARILQLINTAKSRIYLTALYFEQDEAGQQILAALYQAKLANPALDIQILVDWHRAQRGRIGEKTTSSNADWYANMKQQYNLPPEQEIAVWGVPINGREIFGVLHLKGFIFDDTILYSGASINNVYLQQFDRYRYDRYHTLENKVLADSLVTFLQQHILTDHAVNRLDNMQRPVTANIRPAIKAFRKQLTKQQYQFAEQPESNGLMLSPIAGLGRKNQLNKTIEALFYKTQNKLTICTPYFNFPRSLITRIKWLLENGKQVEIIAGDKKANDFYTPPDKKFTMAAALPYLYEKNLRAFAKRFDSYIQNKLLTIRLWKDGENTYHLKGLWVDNRYILLTGNNLNPRAWGLDAENGILLDDPKAELAEKAALELTQIRTFTQELSHYSDLETIKDYPLEVQKLLKKFGRVKLDKIIKMLLLEHHHHHH", "soluble on expression in E. coli": "not soluble"}
{"sequence": "MRILIPFKANNPKSRLSSILSEEERKELARLMLLDVIDAAKPFGEIKVVCPSELDVEGVEVVVDTSDLNTTVNKVMDEAPLAVIMSDLPLLSEEVLKRFFETEGDVVVAPGRKGGTNMLLVRKRGFRVSYHFGSFFKHLEMARKMGMKAKIFDSFYSSVDIDDESDLLELMMHGSGKKSYEFLRKIGFSVSFEETPRLERRVFMQP", "soluble on expression in E. coli": "soluble"}
{"sequence": "SLQTNKASTGLKTDQSFNNSLSESVKLKEIADIYPTNTNFLTGIGIVAGLAGKGDSIKQKDLIIKILEENNIINEIGSNNIESKNIALVNVSLQVKGNTIKGSKHKACVASILDSKDLTNGILLKTNLKNKEGEIIAIASGITQPNNKLKGSGYTIDSVIINENQNINHSYNIILKKGNYTLINRIHKILTSKKINNKIKSDSTIEIEAKNISLLEEIENIKIETNPKILIDKKNGIILASENAKIGTFTFSIEKDNQNIFLSKNNKTTIQVNSMKLNEFILKNSNNLSNKELIQIIQAAQKINKLNGELILEEIDGNQN", "soluble on expression in E. coli": "soluble"}
{"sequence": "YWASSQLTQLFLSTDLESLEPTCLSKDTIYQWKVVQTFGDRLRLRQRVLATAIVLLRRYMLKKNEEKGFSLEALVATCIYLSCKVEECPVHIRTICNEANDLWSLKVKLSRSNISEIEFEIISVLDAFLIVHHPYTSLEQAFHDGIINQKQLEFAWSIVNDSYASSLCLMAHPHQLAYAALLISCCNDENTIPKLLDLIKSTDAFKVILCVQRIISIYYFEDIEAAALEHHHHHH", "soluble on expression in E. coli": "soluble"}
{"sequence": "SISPAQIAEALQGRGWDAEIVTDASMAGQLVDVRPEGILKCVDGRGSDNTRMGGPKMPGGIYAIAHNRGVTSIEGLKQITKEVASKGHLPSVHGDHSSDMLGCGFFKLWVTGRFDDMGYPRPQFDADQGANAVKDAGGIIEMHHGSHTEKVVYINLLANKTLEPNENDQRFIVDGWAADKFGLDVPKFLIAAAATVEMLGGPKNAKIVVP", "soluble on expression in E. coli": "soluble"}
{"sequence": "MQDFDFSFNPKACEGCGAKCCVGESGYIFLNIQEMQQISAFLKLELEEFSQKYVKKVGYKFSLLEKDAKELGLACVFLDLETKKCQIYSVRPKQCQTFPFWEGVKTFSKEQKEAFCQSCPGITQKTKETKVRLEHHHHHH", "soluble on expression in E. coli": "not soluble"}
{"sequence": "MSIAVGMIETRGFPAVVEAADSMVKAARVTLVGYEKIGSGRVTVIVRGDVSGVQASVSAGIEAANRVNGGEVLSTHIIARPHENLEYVLPIRYTEEVEQFRTYGVPRGLEHHHHHH", "soluble on expression in E. coli": "soluble"}
{"sequence": "METMKSKANCAQNPNCNIMIFHPTKEEFNDFDKYIAYMESQGAHRAGLAKIIPPKEWKARETYDNISEILIATPLQQVASGRAGVFTQYHKKKKAMTVGEYRHLANSKKYQTPPHQNFEDLERKYWKNRIYNSPIYGADISGSLFDENTKQWNLGHLGTIQDLLEKECGVVIEGVNTPYLYFGMWKTTFAWHTEDMDLYSINYLHLGEPKTWYVVPPEHGQRLERLARELFPGSSRGCGAFLRHKVALISPTVLKENGIPFNRITQEAGEFMVTFPYGYHAGFNHGFNCAEAINFATPRWIDYGKMASQCSCGEARVTFSMDAFVRILQPERYDLWKRGQDRAVVDHMEPRVPA", "soluble on expression in E. coli": "soluble"}
{"sequence": "MSAKGKHVVVIGGGDTGADCITTSVRHGAKSITQFDINREKSNERPDNNPWPLFPIVHTVEDGHKEAAAVYGKDPRAYQVMTTKFVGDAEGHVKEIHTISVETTVHPDGSKTRVEIPGTEKVWPADLVFLAVGFTGPEEQLVRELELETDTRSNIKAEYGKYETSLEGVFAAGDNRRGQSLVVWAIHEGREAARECDKYLMGLEHHHHHH", "soluble on expression in E. coli": "not soluble"}
{"sequence": "RRNLGGRLYLVTYGKAAALHLDPVEKKPLYHFHPGEGILSVGTVGCNLFCAFCQNWQISQFREFRVSPEGRLDRPIGEDWPPKRLVAEAEALGVRLLAYTYNEPAVWIEYAHDTARLAKARGMKNVFVTSGFETKEAWDYIRPHLDAANVDLKGFTEKFYREVCGARLKPVLESLGHLVASGVWVEVTTLLLEGYNDSDEEVRAMARFLKGLSPDIPWHLTAAHPDYRMLDLRSTRHATLVRAHAIAK", "soluble on expression in E. coli": "not soluble"}
{"sequence": "MTQTFADQKRKTVETAEFTEDGRYKRKVRSFVLRTGRLSEFQRNMMNDNWGTLGLDYQTEPFDFAKIYGNDNPVVLEIGFGMGKSLVDMAFANPDKNYLGIEVHTPGVGACIAYAVEKGVTNLRVICHDATEILRDSIADGALGGLQLFFPDPWHKAKHHKRRIVQPHFVTQVIQKLGENGFIHMATDWENYAEQMLEVLSANTDLVNTSKNGDYIPRPDFRPLTKFEARGYKLGHGVWDLYFVKK", "soluble on expression in E. coli": "not soluble"}
